Results from patent US20190316116A1 (MONASH UNIVERSITY, published 2019).

Molecular target: lysozyme (UniProt P00698 19-147)
Assay: method not stated (data not shown)

Sequence of lysozyme (P00698 19-147 limits assumed): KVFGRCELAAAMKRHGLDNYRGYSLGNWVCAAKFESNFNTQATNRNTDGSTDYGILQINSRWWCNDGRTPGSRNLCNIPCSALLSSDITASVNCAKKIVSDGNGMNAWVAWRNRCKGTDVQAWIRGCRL

Kd: ~100 µM
B1: FN3con.DE0.4.1_graft_v1 (designed binder)
chain: PSPPGNLRVTDVTSTSVTLSWRGYPWATGYRVEYREAGGEWKEVTVPGDLSHRYTVTGLKPGTEYEFRVRAVNRVGRTFDTPGPSSVSVTT
notes: Made by gene synthesis, expressed in E. coli and purified; also called the designed graft; the graft
